The source of these data is paper PMC2600746.

In the data set the target is GST-FoxK[414-654] (Drosophila melanogaster, UniProt A0JL24 414-654). The experiment in a line: competition EMSA. A general note: A gel shift assay detects complexes by their altered migration in electrophoresis.

B1: GAS (dsDNA)
DNA 1: GCGTCTTTTCCGGGAAATACAT
DNA 2: ATGTATTTCCCGGAAAAGACGC
For the molecule B1, the binding result is given as “no binding”.
